Patent publication US20240052042A1 (Novartis, published 2024)
Changes are numbered by the printed parent chain.

B1: XX01 (FabCys format) (Fab, V domains shown)
VH: EVQLLESGGGLVQPGGSLRLSCAASGFTFNTHYIHWVRQAPGKGLEWVSSISSSGQSTYYADSVKGRFTISRDNSKNTLYLQMNSLRAEDTAVYYCARERGYVYYHMFDPWGQGTLVTVSS
VL: DIVLTQSPATLSLSPGERATLSCRASQSITRNYLAWYQQKPGQAPRLLIYGASSRATGIPARFSGSGSGTDFTLTISSLEPEDFAVYYCQQHSMYPRTFGQGTKVEIK
notes: Monovalent FabCys
B2: XX08 (FabCys format) (Fab, V domains shown)
VH: B1 VH with S52G, S53G, S54Q, Q56G, S57M, Y59L
VL: B1 VL
notes: Monovalent FabCys
B3: XX04 (FabCys format) (Fab, V domains shown)
VH: QVQLLESGGGLVQPGGSLRLSCAASGFTFSSYWMNWVRQAPGKGLEWVSAISSDGSYTYYADSVKGRFTISRDNSKNTLYLQMNSLRAEDTAVYYCARDRYSMIYSYGAGAFDYWGQGTLVTVSS
VL: DIQMTQSPSSLSASVGDRVTITCRASQGISSYLAWYQQKPGKAPKLLIYTASTLQSGVPSRFSGSGSGTDFTLTISSLQPEDFATYYCQQEWVKPRTFGQGTKVEIK
notes: Monovalent FabCys
B4: XX12 (FabCys format) (Fab, V domains shown)
VH: B3 VH
VL: B3 VL with E91I, V93M, K94A
notes: Monovalent FabCys
B5: XX03 (FabCys format) (Fab, V domains shown)
VH: B3 VH with Q1E, A50V, S52E, D54K, S56N, T58I, Y59F
VL: B3 VL with Q89M, E91S, W92Y, V93E
notes: Monovalent FabCys
B6: XX07 (FabCys format) (Fab, V domains shown)
VH: B3 VH
VL: B3 VL with E91I, V93T, K94V
notes: Monovalent FabCys
B7: XX06 (FabCys format) (Fab, V domains shown)
VH: B3 VH
VL: B3 VL with E91T, V93R
notes: Monovalent FabCys

target: T1, rat NPR1 (rNPR1) (rat, UniProt P18910 29-469, limits assumed); experiment: SET, FabCys
T1 construct: Soluble antigen
T1 sequence: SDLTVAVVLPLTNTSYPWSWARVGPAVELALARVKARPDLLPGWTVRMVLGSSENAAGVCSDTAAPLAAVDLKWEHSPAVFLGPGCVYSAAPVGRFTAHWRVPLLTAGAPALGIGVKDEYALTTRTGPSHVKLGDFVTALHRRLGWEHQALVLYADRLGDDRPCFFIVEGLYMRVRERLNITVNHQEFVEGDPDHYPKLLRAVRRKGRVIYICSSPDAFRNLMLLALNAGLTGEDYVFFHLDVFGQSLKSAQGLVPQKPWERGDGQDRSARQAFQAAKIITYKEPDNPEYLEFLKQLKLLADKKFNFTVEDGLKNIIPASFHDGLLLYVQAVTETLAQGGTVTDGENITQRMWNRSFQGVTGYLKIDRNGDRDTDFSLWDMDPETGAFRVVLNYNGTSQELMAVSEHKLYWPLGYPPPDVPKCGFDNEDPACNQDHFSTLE

| Binder | rat/human KD ratio |
| --- | --- |
| B1 | < 5 |
| B2 | < 5 |
| B3 | < 5 |
| B4 | < 5 |
| B5 | < 5 |
| B6 | < 5 |
| B7 | < 5 |

target: T2, rNPR1-ANP complex (rat, UniProt P01160 124-151 (human entry), limits assumed); experiment: SET, FabCys
T2 construct: rNPR1 antigen in the presence of ANP; also called rNPR1 + 100 nM ANP
T2 sequence: T1 sequence
T2 sequence (peptide): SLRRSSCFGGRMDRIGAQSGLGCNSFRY

| Binder | Kd [nM] |
| --- | --- |
| B1 | 0.5 |
| B2 | 0.2 |
| B3 | 0.3 |
| B4 | 0.5 |
| B5 | 0.1 |
| B6 | 0.5 |
| B7 | 0.3 |

target: T3, human Natriuretic Peptide Receptor 1 (hNPR1) (human, UniProt P16066 33-473, limits assumed); experiment: SET, FabCys
T3 construct: pannings used NPR1-hFc; also called NPR1-hFc
T3 sequence: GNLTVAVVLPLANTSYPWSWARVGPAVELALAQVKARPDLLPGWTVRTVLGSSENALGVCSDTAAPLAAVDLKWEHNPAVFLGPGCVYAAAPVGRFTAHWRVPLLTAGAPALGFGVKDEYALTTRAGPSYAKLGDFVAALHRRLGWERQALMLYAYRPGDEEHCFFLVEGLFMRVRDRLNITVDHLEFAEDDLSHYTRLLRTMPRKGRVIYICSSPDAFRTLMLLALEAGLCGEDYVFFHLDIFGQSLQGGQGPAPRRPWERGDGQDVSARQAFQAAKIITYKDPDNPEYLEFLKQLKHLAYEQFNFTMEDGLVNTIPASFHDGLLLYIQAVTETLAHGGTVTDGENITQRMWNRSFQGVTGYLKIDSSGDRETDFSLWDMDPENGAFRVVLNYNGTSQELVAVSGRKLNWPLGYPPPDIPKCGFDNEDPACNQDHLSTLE

| Binder | Kd [nM] |
| --- | --- |
| B1 | 43 |
| B2 | 46 |
| B3 | 32 |
| B4 | 16 |
| B5 | 22 |
| B6 | 21 |
| B7 | 10 |

target: T4, hNPR1-ANP complex (human, UniProt P01160 124-151, limits assumed); experiment: SET, FabCys
T4 construct: hNPR1 antigen in the presence of ANP; also called hNPR1 + 100 nM ANP
T4 sequence: T3 sequence
T4 sequence (peptide): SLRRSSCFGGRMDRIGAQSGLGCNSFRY

| Binder | Kd [nM] |
| --- | --- |
| B1 | 0.3 |
| B2 | 0.3 |
| B3 | 0.1 |
| B4 | 0.2 |
| B5 | 0.2 |
| B6 | 0.2 |
| B7 | 0.1 |

target: T1, rat NPR1 (rNPR1); experiment: SET, FabCys; remark: another data set of the same source

| Binder | Kd [nM] |
| --- | --- |
| B1 | 1.4 |
| B2 | 1.8 |
| B3 | 3.3 |
| B4 | 3 |
| B5 | 1.1 |
| B6 | 2.9 |
| B7 | 2.3 |
